Data as given in the supplement of paper PMC12042874.
± gives the uncertainty stated by the source.

Experiment: amyloid nucleation score (Sup35N fusion, yeast selection) (log enrichment); library NNK3; higher = more nucleation; inactive = no reads after selection
How it was run: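 Sup35N fusions to peptides of 20 random codons were expressed in psi-negative yeast, induced 24 hours with 100 μM copper sulfate, and grown 7 days at 30°C on medium lacking adenine and uracil. Input and output plasmid inserts were sequenced by Illumina. The nucleation score is the DiMSum log enrichment of output over input reads, centred on the mode score of non-aggregating sequences. Sequences with under 100 input reads were excluded.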

Substance	amyloid nucleation score
TKGLDILDGVCVGCLRCQVD	inactive
TKLCQSLRHAQRGTRTTSFS	inactive
TKLPNYFWGLKGYHLLALLR	inactive
TKWRLTP	inactive
TKYRPCYNIVYSMFED	inactive
TLAPKYFYFFVKDVFGTSYC	1.54 ± 0.093
TLDHEWGFLSEKATVL	inactive
TLDVQGTCH	inactive
TLFVA	inactive
TLGRNCLVQRSCMGRSSECD	inactive
TLISYFEG	inactive
TLLFFCLEQTFNWFIMIQ	inactive
TLLFY	inactive
TLLHDSDVGMQLSGSQRFFS	inactive
TLLLL	inactive
TLMGLESVSVYFSMGFLSVY	inactive
TLNGCR	inactive
TLNRLTKKHCFGNFWLYSAW	inactive
TLSDQFDMISWVSK	inactive
TLVPVCGGSAGLVSSRKAAT	inactive
TLWAEYTNLSEKEIDDYIDL	inactive
TLWFQPDFTHVRRWYGLGLR	inactive
TLYKSGGEFHYKGLALKSKC	inactive
TMLWYLDDSSSNIREKSHGM	inactive

Substance	amyloid nucleation score
TMTRSLYSVVSFKRFNSCLV	inactive
TMWLLCELFVTC	inactive
TMYVCWSMFEAIWDINHNTS	-0.26 ± 0.64
TNLLM	inactive
TNNRKRLYYWFERVTSE	inactive
TNRIMNPVYDILWSGMGQPC	inactive
TNTFQSRNMFVNTALIYSP	inactive
TNTSFSNWRCTPDRGIM	inactive
TNVRIYCSWGVDAG	inactive
TPHLSCNLRYG	inactive
TPLTPSGRLGFLTK	0.7 ± 0.21
TPNARSNPSNRPVSSTRARS	inactive
TPRKVVDNGGLIDFKVYRLL	inactive
TPSVRRGVMGVSPELCAMVG	inactive
TPYQYFFRNCWKMSYRRAKI	inactive
TQGFLNKAGNVLSVIMDRIR	inactive
TQLFGGFPTEGQMMYPPRSS	inactive
TQRRFMYMAFNQYMSQSSSR	inactive
TQSFWIARYTQLVCPRLCQN	inactive
TRALT	inactive
TRERWTTVYLNKLFLLCYSD	inactive
TRICMCFEFVNTSY	inactive
TRILVRTGYHLLFLEG	inactive
TRKLIDYLFTVKQVLQSKEE	inactive

Substance	amyloid nucleation score
TRMEICCKGYKGNVPKFAVY	inactive
TRMSVQLISFAKLTFFSACM	inactive
TRNSYCTFRGGIIFCL	1.25 ± 0.09
TRRGHHCQFLVSGSGIAL	inactive
TRSCDRYRALYSLLFTTGSM	inactive
TRWHDGKRVSWKSTPNMLSV	inactive
TRYGNW	inactive
TSAYGMSSWGFWS	inactive
TSESAIAVRWSVFSPWPLGF	0.643 ± 0.15
TSGHLVLGGYLSNQVKSVFR	0.605 ± 0.24
TSKLVCPNGVMHLRDDRVGC	inactive
TSKREWLMRNYAHCTNFDGR	inactive
TSKRSYVSTGYTNWFTFRI	inactive
TSKVGLACKTIYVERSFWYF	inactive
TSMSGYRTRNPMTVPHHCVV	inactive
TSQQHPASVSKGYMLRDG	inactive
TSQTLESQDLIFSGCHSGWL	inactive
TSQYRPERKLRVR	inactive
TSSETNLAYCSAVRGGLRKQ	inactive
TSVLSTGCYTRTVTNVNGSI	inactive
TSVSKFKPVLHYNRTGSHGF	inactive
TTDCIESVRDG	-0.659 ± 1.4
TTFATSCNMWYHRSILHS	inactive
TTLQEDGYRDACGYMASVFW	inactive

Substance	amyloid nucleation score
TTMWFLWEVSGYCHKCN	inactive
TTQILAL	inactive
TTRKNLKSGLVVSL	inactive
TTRYHF	inactive
TTSLSIGGLIFRLVL	inactive
TTTLDSQSNNMFGAS	inactive
TTTRIAMYWYEYMSGCASHY	inactive
TVDFLSLVCVVIFRGTDWRR	-1.03 ± 1.1
TVDMSKPGYIWFSSDRSRYW	inactive
TVGCHSGPELMFQSWNSRSL	inactive
TVIVCVTFLRGWVSSACGLS	0.045 ± 0.8
TVIWLYIFRSQMPPVNPMRL	inactive
TVKMRKFRRGTFRDMDIYWR	inactive
TVKVYTWNY	1.93 ± 0.09
TVLITIIFTSRGVAVRKS	-1.19 ± 1.9
TVLSIIVFSYLLVCYHLVSV	inactive
TVLSVGINDFPYRSAISCLR	inactive
TVLVTMFKIEEQLTF	inactive
TVNWLL	inactive
TVPVVREVLRLRVLRIFGVG	inactive
TVRKSRSRSTQDEAFNPGTH	0.111 ± 0.63
TVSICSGVSRVWKHLHYMMV	inactive
TVSLRCWARLSNTDFIRFNS	inactive
TVTCANSCLCRLSRMSCVVL	inactive

Substance	amyloid nucleation score
TVVKPNRLAYHSQLFCKAHT	inactive
TVYELYVDLAVRRSAFAFLP	0.744 ± 0.15
TWESGENLTLTWAAQMGRCG	inactive
TWFLTPLNTFIFLLVPLFGL	inactive
TWILSMWRSCIPNL	inactive
TWLIY	inactive
TWVCEG	inactive
TWVILCKNSWFMLI	inactive
TWVVLG	inactive
TYENDLC	inactive
TYGNLFNNCDKIYRRQNRSL	inactive
TYISF	inactive
TYKHNSTYIKPLTSFLQSGG	inactive
TYKRIPYELTRSGTKPLYTP	inactive
TYLLYCCVVVR	inactive
TYLRLTWIDCYSPCFKSNAI	2.43 ± 0.061
TYMTYERVYL	inactive
TYQST	inactive
TYSIISENIVVFFNRM	2.58 ± 0.059
TYSSGFAPGWN	inactive
TYSVGHR	inactive
